Patent US20200207822A1, “PEPTIDE INHIBITORS OF INTERLEUKIN-23 RECEPTOR AND THEIR USE TO TREAT INFLAMMATORY DISEASES” (Protagonist Therapeutics, Inc., priority 2017, published 2020)

T1: interleukin-23 receptor (IL-23R) (human, UniProt Q5VWK5 24-629)
T1 sequence (looked up): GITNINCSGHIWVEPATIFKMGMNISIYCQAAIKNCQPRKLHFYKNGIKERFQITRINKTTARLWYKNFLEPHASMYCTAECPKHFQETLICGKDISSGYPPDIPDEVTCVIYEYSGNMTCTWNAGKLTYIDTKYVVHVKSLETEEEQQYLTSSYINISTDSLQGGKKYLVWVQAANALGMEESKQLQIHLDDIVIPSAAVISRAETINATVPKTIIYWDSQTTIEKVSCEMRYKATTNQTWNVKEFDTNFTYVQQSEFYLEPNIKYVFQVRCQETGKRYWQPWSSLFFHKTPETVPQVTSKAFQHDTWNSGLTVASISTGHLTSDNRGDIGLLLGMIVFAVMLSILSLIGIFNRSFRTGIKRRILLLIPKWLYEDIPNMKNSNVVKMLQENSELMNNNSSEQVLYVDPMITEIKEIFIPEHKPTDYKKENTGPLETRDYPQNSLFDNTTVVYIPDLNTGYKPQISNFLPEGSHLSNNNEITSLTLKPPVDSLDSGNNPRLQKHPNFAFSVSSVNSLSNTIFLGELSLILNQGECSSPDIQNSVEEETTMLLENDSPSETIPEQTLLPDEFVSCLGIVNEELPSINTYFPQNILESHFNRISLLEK


biological target: T1, interleukin-23 receptor (IL-23R); experiment: cell-based or functional assay

Row | Binder | IC50, pStat3 HTRF (nM)
1 | XXQTWXCXXXENN (Ac-[(D)Arg]-cyclo[[Abu]-QTW-[β-homoGln]-C]-[Phe[4-(2-aminoethoxy)]-[2-Nal]-[4-amino-4-carboxy-tetrahydropyran]-ENN-NH2) [SEQ ID NO 97] | > 100 nM
2 | XQTXQCXXXENN (Ac-cyclo[[Abu]-QT-[Trp(5-F)]-QC]-[Phe[4-(2-aminoethoxy)]-[2-Nal]-[α-MeLeu]-ENN-NH2) [SEQ ID NO 106] | < 1 nM

Continued, values first:

Row | IC50, pStat3 HTRF (nM) | Binder
3 | < 1 nM | XXQTWQCXXXENN (Ac-[(D)Arg]-cyclo[[Abu]-QTWQC]-[Phe[4-(2-aminoethoxy)]-[2-Nal]-[α-MeLeu]-ENN-NH2) [SEQ ID NO 107]
4 | < 1 nM | XXQTWQCXXXENN (Alexa488-[PEG4]-[(D)Arg]-cyclo[[Abu]-QTWQC]-[Phe[4-(2-aminoethoxy)]-[2-Nal]-[4-amino-4-carboxy-tetrahydropyran]-ENN-NH2) [SEQ ID NO 71]
5 | < 1 nM | XXQTXQCXXXENN (Ac-[(D)Arg]-cyclo[[Abu]-QT-[Trp(5-F)]-QC]-[Phe[4-(2-aminoethoxy)]-[2-Nal]-[α-MeLeu]-ENN-NH2) [SEQ ID NO 105]
